# From patent publication US4010251A, “Scanning agent composition and use in imaging liver and for biliary function” (priority 1974, dated 1977)
# B1: Radiolabelled DTBG: Radiolabelled desialylated thyroxine-binding globulin; radiolabel not specified at that place (protein, UniProt P05543 21-415, looked up)
# Thyroxine-binding globulin: ASPEGKVTACHSSQPNATLYKMSSINADFAFNLYRRFTVETPDKNIFFSPVSISAALVMLSFGACCSTQTEIVETLGFNLTDTPMVEIQHGFQHLICSLNFPKKELELQIGNALFIGKHLKPLAKFLNDVKTLYETEVFSTDFSNISAAKQEINSHVEMQTKGKVVGLIQDLKPNTIMVLVNYIHFKAQWANPFDPSKTEDSSSFLIDKTTTVQVPMMHQMEQYYHLVDMELNCTVLQMDYSKNALALFVLPKEGQMESVEAAMSSKTLKKWNRLLQKGWVDLFVPKFSISATYDLGATLLKMGIQHAYSENADFSGLTEDNGLKLSNAAHKAVLHIGEKGTEAAAVPEVELSDQPENTFLHPIIQIDRSFMLLILERSTRSILFLGKVVNPTEA
# modifications: desialylated; radiolabelled
# notes: radiolabel not specified at that place
# B2: ^131 I-DTBG: ^131 I labelled desialylated thyroxine-binding globulin (protein, UniProt P05543 21-415, looked up)
# Thyroxine-binding globulin: ASPEGKVTACHSSQPNATLYKMSSINADFAFNLYRRFTVETPDKNIFFSPVSISAALVMLSFGACCSTQTEIVETLGFNLTDTPMVEIQHGFQHLICSLNFPKKELELQIGNALFIGKHLKPLAKFLNDVKTLYETEVFSTDFSNISAAKQEINSHVEMQTKGKVVGLIQDLKPNTIMVLVNYIHFKAQWANPFDPSKTEDSSSFLIDKTTTVQVPMMHQMEQYYHLVDMELNCTVLQMDYSKNALALFVLPKEGQMESVEAAMSSKTLKKWNRLLQKGWVDLFVPKFSISATYDLGATLLKMGIQHAYSENADFSGLTEDNGLKLSNAAHKAVLHIGEKGTEAAAVPEVELSDQPENTFLHPIIQIDRSFMLLILERSTRSILFLGKVVNPTEA
# modifications: 131I label; desialylated
# B3: DTBG: desialylated thyroxine-binding globulin from pooled human serum (protein, UniProt P05543 21-415, looked up)
# Thyroxine-binding globulin: ASPEGKVTACHSSQPNATLYKMSSINADFAFNLYRRFTVETPDKNIFFSPVSISAALVMLSFGACCSTQTEIVETLGFNLTDTPMVEIQHGFQHLICSLNFPKKELELQIGNALFIGKHLKPLAKFLNDVKTLYETEVFSTDFSNISAAKQEINSHVEMQTKGKVVGLIQDLKPNTIMVLVNYIHFKAQWANPFDPSKTEDSSSFLIDKTTTVQVPMMHQMEQYYHLVDMELNCTVLQMDYSKNALALFVLPKEGQMESVEAAMSSKTLKKWNRLLQKGWVDLFVPKFSISATYDLGATLLKMGIQHAYSENADFSGLTEDNGLKLSNAAHKAVLHIGEKGTEAAAVPEVELSDQPENTFLHPIIQIDRSFMLLILERSTRSILFLGKVVNPTEA
# modifications: desialylated
# Assays:
# [1] = test system: liver; settings: human, in vivo; cited from earlier work
# [2] = test system: rat and rabbit liver; assay: In vivo animal hepatic imaging after intravenous injection of labelled compounds
# Method: Adult male Wistur rats weighing about 400g and male New Zealand rabbits weighing about 2.5kg. were used in the in vivo animal imaging studies. After intravenous injection of the labelled compounds (100-400uCi) as a bolus into experimental animals, hepatic imaging was performed on a PhoGamma III scintillation camera (Nuclear Chicago Corp., Des Plaines, Ill.) using a 140keV parallel collimator. Images were recorded on Polaroid type 55 film.
# [3] = in vivo; cited from earlier work
molecule,measurement,setting,value
O=C(O)c1c(Cl)c(Cl)c(Cl)c(Cl)c1-c1c2cc(I)c(=O)c(I)c-2oc2c(I)c(O)c(I)cc12 [^131 I-rose bengal],20:5 minutes ratio of blood ^131 I-rose bengal concentrations,[1],0.39-0.51
same,time by which biliary excretion has begun,[1],≤ 20 min
same,time for maximal concentration in the liver,[1],~30 min
B1,liver imaging after intravenous injection,[2]; scintillation camera,effective as a liver imaging agent
B2,"clearance of the iodine label by the kidneys noted, time post-injection",[2]; in vivo,20 or 30 minutes
same,uptake and concentration in the liver,[2]; in vivo,rapidly taken up by the hepatocytes
B3,half-life in the circulation,[3],4 to 5 min
